Laboratory results reported in US6207419A, “Thrombin inhibitory agents and methods of using same” (The University of North Carolina at Chapel Hill, priority 1999, dated 2001).

What was measured:
thrombin [1] = assay: Thrombin inhibition in the absence of glycosaminoglycan; assay type: biochemical, human
Protocol: All assays were performed at room temperature in 96-well microtiter plates previously coated with 2 mg/mL BSA.
(§1) Residual thrombin activity was measured with 150 μM GlyProArg-NA and 1 mg/mL pB in the absence of glycosaminoglycan, 2 mg/mL pB in the presence of heparin and 4 mg/mL in the presence of dermatan sulfate. Residual factor Xa activity was measured with 500 μM Spectrozyme FXa and 2mg/mL pB in the presence or absence of glycosaminoglycan. Residual chymotrypsin activity was measured with 150 μM AlaAlaProPhe-NA and residual trypsin activity was measured with 150 μM GlyProArg-NA.
(§2) Assays were performed at least in triplicate on two or more recombinant protein preparations.

chymotrypsin = assay: Chymotrypsin inhibition in the absence of glycosaminoglycan; assay type: biochemical
Protocol: (§3) Protease inhibition rates were determined as described previously (Rogers, S. J., Pratt, C. W., Whinna, H. C., and Church, F. C. (1992) J. Biol. Chem. 267(6), 3613-3617; Whinna, H. C., Choi, H. U., Rosenberg, L. C., and Church, F. C. (1993) J. Biol. Chem. 268, 3920-3924; Ciaccia, A. V., Cunningham, E. L., and Church, F. C. (1995) Protein Express. Purific. 6, 806-812; Ciaccia, A. V., Willemze, A. J., and Church, F. C. (1997) J. Biol. Chem. 272(2), 888-893). All assays were performed at room temperature in 96-well microtiter plates previously coated with 2 mg/mL BSA.
In the absence of glycosaminoglycan, 50-100 nM rHCII (wt, CHis6, CHis5 Pro, L444R, or L444R-CHis6) or rATIII (wt or CHis6) was incubated with 1 nM thrombin, 0.5 nM Factor Xa, 2 nM chymotrypsin, or 5 nM trypsin, in the presence of 1 mg/mL Polybrene (pB) (for thrombin and Factor Xa) and 2 mg/mL BSA in HNPN, pH 7.4.
(§4) Residual thrombin activity was measured with 150 μM GlyProArg-NA and 1 mg/mL pB in the absence of glycosaminoglycan, 2 mg/mL pB in the presence of heparin and 4 mg/mL in the presence of dermatan sulfate. Residual factor Xa activity was measured with 500 μM Spectrozyme FXa and 2mg/mL pB in the presence or absence of glycosaminoglycan. Residual chymotrypsin activity was measured with 150 μM AlaAlaProPhe-NA and residual trypsin activity was measured with 150 μM GlyProArg-NA. Substrate cleavage was measured by color development at […] on a Vmax Kinetic Microplate Reader (Molecular Devices).
(§5) Assays were performed at least in triplicate on two or more recombinant protein preparations. All inhibition studies were measured under pseudo-first order conditions where inhibitor [I] is at least ten-fold higher than enzyme (protease) [E], and second-order rate constants were calculated as described previously (Ciaccia, A. V., Cunningham, E. L., and Church, F. C. (1995) Protein Express. Purific. 6, 806-812; Ciaccia, A. V., Willemze, A. J., and Church, F. C. (1997) J. Biol. Chem. 272(2), 888-893).

[2] = target: T1, plasma purified α-thrombin (Homo sapiens, UniProt P00734); assay: Thrombin inhibition in the presence of glycosaminoglycans (heparin or dermatan sulfate); assay type: biochemical
T1 construct: Human α-thrombin, HCII, and ATIII were purified in our laboratory from plasma; from tissue; host or cells: human plasma (purified in the authors' laboratory)
Protocol: as §3
In the presence of glycosaminoglycans, 5 nM rHCII (wt, CHis6, CHis5 Pro, L444R, or L444R-CHis6) was incubated with 0.5 nM thrombin and 0-1 mg/mL heparin or 0-4 mg/mL dermatan sulfate or 10 nM rATIII (wt or CHis6) was incubated with 1 nM thrombin or factor Xa and 0-1 mg/mL heparin in the presence of 2 mg/mL BSA in HNPN, pH 7.4.
as §4, §5

[3] = Heparin-Sepharose affinity chromatography; assay type: binding; settings: NaCl gradient, 20 mM Hepes pH 7.4
Protocol: 100 μL of each fraction was aliquoted onto a 96-well microtiter plate and ELISA was performed. The peak elution ionic strength was determined by plotting 405 nm color development and NaCl concentration against the fraction number. All samples were run at least in triplicate using two or more protein preparations. Recombinant ATIII samples were run similarly to the HCII samples, except the elution gradient was run from 50 mM to 2 M NaCl.

α-thrombin = target: T2, α-thrombin (Homo sapiens, UniProt P00734); assay: Effect of hirugen on thrombin inhibition in the absence of glycosaminoglycan; assay type: biochemical
T2 construct: Human α-thrombin, HCII, and ATIII were purified in our laboratory from plasma; from tissue; host or cells: human plasma (purified in the authors' laboratory)
Protocol: as §1, §2

[4] = tested on: plasma-purified α-thrombin; assay: Thrombin inhibition with heparin before and after carboxypeptidase A digest; assay type: biochemical, human; settings: 2 hr, room temperature, FIG. 3
Protocol: Forty ng of CPA was combined with approximately 1 μg of recombinant protein and incubated at room temperature. Following a 2-hr incubation at room temperature, 2 mM EDTA was added to quench CPA activity. Controls were run in which EDTA was added to the reaction prior to the addition of CPA. CPA digested proteins were then assayed according to previously mentioned procedures.

thrombin [5] = assay: pH titration of thrombin inhibition; assay type: biochemical; settings: pH 6.2 to pH 8; FIG. 6
From the text: Therefore, it is possible that the enhanced thrombin inhibitory activity of rHCII-CHis6 (assayed at pH 7.4) is attributable to a charge on the carboxyl terminal tag. An assay was designed to measure thrombin inhibition by rHCII-CHis6 and wt-rHCII from pH 6.2 to pH 8.

B1: rHCII-CHis6: Recombinant HCII with six histidine residues added at the carboxyl terminus; SEQ ID NO:5 (protein)
chain: MKHSLNALLIFLIITSAWGGSKGPLDQLEKGGETAQSADPQWEQLNNKNLSMPLLPADFHKENTVTNDWIPEGEEDDDYLDLEKIFSEDDDYIDIVDSLSVSPTDSDVSAGNILQLFHGKSRIQRLNILNAKFAFNLYRVLKDQVNTFDNIFIAPVGISTAMGMISLGLKGETHEQVHSILHFKDFVNASSKYEITTIHNLFRKLTHRLFRRNFGYTLRSVNDLYIQKQFPILLDFRTKVREYYFAEAQIADFSDPAFISKTNNHIMKLTKGLIKDALENIDPATQMMILNCIYFKGSWVNKFPVEMTHNHNFRLNEREVVKVSMMQTKGNFLAANDQELDCDILQLEYVGGISMLIVVPHKMSGMKTLEAQLTPRVVERWQKSMTNRTREVLLPKFKLEKNYNLVESLKLMGIRMLFDKNGNMAGISDQRIAIDLFKHQGTITVNEEGTQATTVTTVGFMPLSTQVRFTVDRPFLFLIYEHRTSCLLFMGRVANPSRSHHHHHH
modifications: C-terminal His6 tag
- Ratio (mutant/wt serpin), thrombin (thrombin [1]): 1.48
- rate of thrombin inhibition relative to wt-rHCII (thrombin [1]): 1.5 fold
- k2 × 10^4 (M^-1 min^-1), thrombin (thrombin [1]; pH 7.4, mean ± S.D.): 1.92 ± .10 × 10^4 (M^-1 min^-1)
- Ratio (mutant/wt serpin), chymotrypsin (chymotrypsin): .860
- chymotrypsin inhibition compared with wt-rHCII, in words (chymotrypsin): essentially the same
- k2 × 10^4 (M^-1 min^-1), chymotrypsin (chymotrypsin; pH 7.4, mean ± S.D.): 61.0 ± 16 × 10^4 (M^-1 min^-1)
- average dermatan sulfate concentration at which the maximal rate was measured (in parentheses), thrombin ([2]; Thrombin + dermatan sulfate, unit not printed in table (text b157: μg/mL)): 500
- average heparin concentration at which the maximal rate was measured (in parentheses), thrombin ([2]; Thrombin + heparin, unit not printed in table (text b156: μg/mL)): 5
- dermatan sulfate concentration at maximal rate of thrombin inhibition ([2]; dermatan sulfate): approximately 500 μg/mL
- maximal rate of thrombin inhibition in the presence of dermatan sulfate ([2]; dermatan sulfate at optimal concentration): 1.80±0.50×10^9 M^-1 min^-1
- decrease in the amount of heparin required for maximal activity versus wt-rHCII ([2]; heparin): ~20 fold
- heparin concentration at maximal rate of thrombin inhibition ([2]; heparin): 5 µg/mL
- maximal rate of thrombin inhibition in the presence of heparin ([2]; heparin at optimal concentration): 2.23±0.43×10^9 M^-1 min^-1
- Inhibition Rate k2 × 10^8 (M^-1 min^-1), Thrombin + dermatan sulfate ([2]; maximal rate of dermatan sulfate curve, mean ± S.D.): 18.0 ± 5.0 × 10^8 (M^-1 min^-1)
- Inhibition Rate k2 × 10^8 (M^-1 min^-1), Thrombin + heparin ([2]; maximal rate of heparin curve, mean ± S.D.): 22.3 ± 4.3 × 10^8 (M^-1 min^-1)
- Ratio (variant/wt), Thrombin + dermatan sulfate ([2]; maximal rates): 1.2
- Ratio (variant/wt), Thrombin + heparin ([2]; maximal rates): 2.4
- increase in the rate of thrombin inhibition with heparin versus wt-rHCII ([2]; maximal rates with heparin): > 2 fold
- increase of rate of thrombin inhibition with heparin ([2]; with heparin versus without): over 100,000 fold
- Heparin-Sepharose [NaCl], peak elution concentration [3]: 575 mM
- reduction of rate of thrombin inhibition by hirugen (α-thrombin; hirugen 20 μM, absence of glycosaminoglycan): > 50%
- rate constant of inhibition (k2) in the absence of peptide (α-thrombin; no hirugen, no control peptide, FIG. 5): 310 M⁻¹ s⁻¹
- change of heparin-dependent thrombin inhibition after CPA digest, in words [4]: shifts to lower rates of inhibition
- inhibition of thrombin over pH titration, in words (thrombin [5]): greater than that by wt-rHCII
